Source: patent US20210355194A1 (published 2021)
Like-named read-outs stand apart in the source and are kept apart here.

How the values were obtained:
[1] = target: T1, SARS-CoV-2 S protein trimer (SARS-CoV-2, UniProt P0DTC2 14-1208); test: SPR
[2] = target: T2, SARS-CoV-2 S1 protein (SARS-CoV-2, UniProt P0DTC2 16-685); test: SPR
[3] = target: T1, SARS-CoV-2 S protein trimer; test: SPR; remark: listed apart in the source
[4] = target: T2, SARS-CoV-2 S1 protein; test: SPR; remark: listed apart in the source
[5] = target: SARS-CoV-2 S1 RBD (SARS-CoV-2, UniProt P0DTC2 319-537); test: competition
[6] = target: ACE2 (human, UniProt Q9BYF1 18-740); test: SPR
[7] = target: T3, SARS-CoV-2 membrane protein (SARS-CoV-2, UniProt P0DTC5 1-222); test: SPR
[8] = target: T3, SARS-CoV-2 membrane protein; test: SPR; remark: listed apart in the source
[9] = target: human ACE2 (human, UniProt Q9BYF1 18-740); test: SPR
[10] = target: T3, SARS-CoV-2 membrane protein; test: SPR; remark: listed apart in the source

Sequence of ACE2 (Q9BYF1 18-740): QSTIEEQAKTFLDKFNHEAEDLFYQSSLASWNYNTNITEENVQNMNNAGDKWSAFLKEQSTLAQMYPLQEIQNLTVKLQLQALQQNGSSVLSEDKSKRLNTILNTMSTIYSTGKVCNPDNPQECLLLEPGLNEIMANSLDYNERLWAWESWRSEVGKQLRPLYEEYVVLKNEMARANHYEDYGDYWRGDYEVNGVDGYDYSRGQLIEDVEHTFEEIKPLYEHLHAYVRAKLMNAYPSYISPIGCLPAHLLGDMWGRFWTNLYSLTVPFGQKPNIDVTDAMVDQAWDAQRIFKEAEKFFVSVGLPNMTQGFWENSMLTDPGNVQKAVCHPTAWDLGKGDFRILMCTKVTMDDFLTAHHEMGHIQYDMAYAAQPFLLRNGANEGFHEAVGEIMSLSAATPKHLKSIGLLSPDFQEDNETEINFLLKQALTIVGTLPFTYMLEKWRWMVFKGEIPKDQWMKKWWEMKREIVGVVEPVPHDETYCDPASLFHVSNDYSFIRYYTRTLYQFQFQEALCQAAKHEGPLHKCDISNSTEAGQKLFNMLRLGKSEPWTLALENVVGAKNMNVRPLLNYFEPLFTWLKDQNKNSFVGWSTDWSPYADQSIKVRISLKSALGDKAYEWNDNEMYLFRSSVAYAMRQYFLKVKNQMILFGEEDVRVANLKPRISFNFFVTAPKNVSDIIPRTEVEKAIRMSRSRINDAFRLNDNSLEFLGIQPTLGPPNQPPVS
Sequence of human ACE2 (Q9BYF1 18-740): as above

B1: 2-6 (antibody, V domains shown)
VH: EVQLLESGGGLVQPGGSLRLSCAASGFTFSNYPMNWVRQAPGKGLEWVSTISGSGGNTFYADSVKGRFTISRDNSKNTLYLQMNSLRAEDTAVYYCVRHDEYSFDYWGQGTLVTVSS
VL: DIQMTQSPSSLSASVGDRVTITCRASQSIDTYLNWYQQKPGKAPKLLIYAASALASGVPSRFSGSGSGTDFTLTISSLQPEDFATYYCQQSYSAPPYTFGQGTKVEIK
For B1, the Kd [1] was under 0.036 nM, the Kd [2] was 7.2 nM and the Kd [3] was 0.036 nM. The Kd [4] was 7.2 nM and the IC50 [5] was 0.754 nM.

B2: 2-5 (antibody, V domains shown)
VH: EVQLLESGGGLVQPGGSLRLSCAASGFTFSDFAMAWVRQAPGKGLEWVSAISGSGDITYYADSVKGRFTISRDNSKNTLYLQMNSLRAEDTAVYYCAREADGLHSPWHFDLWGQGTLVTVSS
VL: DIQMTQSPSSLSASVGDRVTITCRASQSIHTYLNWYQQKPGKAPKLLIYAASALASGVPSRFSGSGSGTDFTLTISSLQPEDFATYYCQQSYSAPPYTFGQGTKVEIK
B2 gave a Kd [3] of 1.7 nM, a Kd [4] of 0.223 nM and an IC50 [5] of 3.83 nM.

B3: 2-2 (antibody, V domains shown)
VH: EVQLLESGGGLVQPGGSLRLSCAASGFTFSRHAMNWVRQAPGKGLEWVSGISGSGDETYYADSVKGRFTISRDNSKNTLYLQMNSLRAEDTAVYYCARDLPASYYDSSGYYWHNGMDVWGQGTLVTVSS
VL: DIQMTQSPSSLSASVGDRVTITCRASQTINTYLNWYQQKPGKAPKLLIYSASTLQSGVPSRFSGSGSGTDFTLTISSLQPEDFATYYCQQSYSTFTFGQGTKVEIK
Binder B3 has a Kd [3] of 0.143 nM, a Kd [4] of 74 nM and an IC50 [5] of 1.26 nM.

B4: ACE2 variant antibody 4-49 (VHH)
VHH: EVQLVESGGGLVQPGGSLRLSCAASGRTFGDYIMGWFRQAPGKERESVAAINWSAGYTAYADSVKGRFTISADNSKNTAYLQMNSLKPEDTAVYYCARASPNTGWHFDHWGQGTLVTVSS
In the case of B4, the Kd [6] is reported as 2.3 nM.

B5: 10-27 (antibody, V domains shown)
VH: EVQLVESGGGLVQPGGSLRLSCAASGRTFRRYSMGWFRQAPGKEREFVASITPGGNTNYADSVKGRFTISADNSKNTAYLQMNSLKPEDTAVYYCASRRRWLTPYIFWGQGTLVTVSS
Work on B5 yielded a Kd [7] of 5.7 nM.

B6: 10-20 (antibody, V domains shown)
VH: EVQLVESGGGLVQPGGSLRLSCAASGRTIRTMGWFRQAPGKEREFVATINSRGITNYADSVKGRFTISADNSKNTAYLQMNSLKPEDTAVYYCTTERDGLLWFRELFRPSWGQGTLVTVSS
B6 showed a Kd [8] of 66 nM.

B7: 3-7 (antibody, V domains shown)
VH: EVQLLESGGGLVQPGGSLRLSCAASGFMFGNYAMSWVRQAPGKGLEWVAAISGSGGSTYYADSVKGRFTISRDNSKNTLYLQMNSLRAEDTAVYYCAKDRGYSSSWYGGFDYWGQGTLVTVSS
VL: DIQMTQSPSSLSASVGDRVTITCRASQSIGRYLNWYQQKPGKAPKLLIYASSSLQSGVPSRFSGSGSGTDFTLTISSLQPEDFATYYCQQSYSLPRTFGQGTKVEIK
Work on B7 yielded a Kd [9] of 0.326 nM.

B8: 2-9 (antibody, V domains shown)
VH: EVQLLESGGGLVQPGGSLRLSCAASGFTFPRYAMSWVRQAPGKGLEWVSTISGSGSTTYYADSVKGRFTISRDNSKNTLYLQMNSLRAEDTAVYYCARLIDAFDIWGQGTLVTVSS
VL: DIQMTQSPSSLSASVGDRVTITCRASQRIGTYLNWYQQKPGKAPKLLIYAASNLEGGVPSRFSGSGSGTDFTLTISSLQPEDFATYYCQQNYSTTWTFGQGTKVEIK
B8 was tested, and the IC50 [5] was 4.69 nM.

B9: 10-28 (antibody, V domains shown)
VH: EVQLVESGGGLVQPGGSLRLSCAASGSIFSIGMGWFRQAPGKEREFVARIWWRSGATYYADSVKGRFTISADNSKNTAYLQMNSLKPEDTAVYYCAAISIFGRLKWGQGTLVTVSS
Work on B9 yielded a Kd [10] of 5.6 nM and a Kd [7] of 5.6 nM.

B10: 9-11 (antibody, V domains shown)
VH: EVQLVESGGGLVQPGGSLRLSCAASGRTFGRRAMGWFRQAPGKEREFVAGISRGGGTNYADSVKGRFTISADNSKNTAYLQMNSLKPEDTAVYYCAAKGIWDYLGRRDFGDWGQGTLVTVSS
B10 was tested, and the Kd [7] was 0.593 nM.
